# Test: soluble on expression in E. coli; label from the status in PepcDB or PDB records
row,Sequence,soluble on expression in E. coli
1,MSYTTDEVHFLLDLDAEITAVAGAITRDHAMTKATAVKDAATFHKHFGANGRAAMELCASRTSAQGKLPHDWLMCHDSSQQATPLTVAQQRAHRIHRVCGSEAIVHDVTCSIGTEGAAITDLGMAYHGSDLDMSRLLMARHNVPTGLFFQADALKRASTSSDVIIADPARRAEGRRITKPDQLIPPLPQLVDHWRIATTTAAPMAIKCAPGLDFQEWDGLVSVVSVAGGVKEACLYTPELSEGLTREAIMIGPDQSVDVLNDRHGGEVPAGDPGTFIIDPDGAVVRAGLVQHYAAREQLWMLDEHIAYLTGDRIPQGRSGFRFIEMVGLKQLKSALVAHDAGSLEILVRGVDVDPDQLRKKLKLKGNTPMAVICTRIGRKGVALICHAREHSQT,not soluble
2,MTAAARTPAFYLDLGVPDTVMGRFEMLSVIMILYFRRTKSSGVSGQEIAQEIVDAFFQDIDHSIRELGIGDQGVPKRMKKFAGMFYGRLESYAAALDASDCAALAAALRRNIYPQVDDEAPEMEGLAGWMMETSDALAAQSEETIATGSLTLPLPILEHHHHHH,not soluble
3,MTAAMYDLMDYDEVLEKFDPVMGLEVHVELATETKMFSAPSAHFGAEPNSNVDPVSLGLPGALPVVNAKGVEWAIKIGLALNCKIAESSRFARKNYFYPDQPKNYQISQYDEPIAYDGYLDVVLDDGTPWRVEIERAHMEEDTGKLTHLGGADGRIHGATASLVDCNRAGIPLIEIVTKPIEGAGERAPEVARAYVGALRDLVKALGVSDARMDQGSMRCDANVSLRPVGTVEFGTRTETKNINSLKSVEQAVRYEMQRQAQVLEDGGEIVQETRHYQETDGSTSKGRPKETAEDYRYFNDPDLPPVIAPKEWVEEIRATLPELPWIRRARIQKEWGLKDEEMRDLVNAGALDLIVETVEAGASASEARSWWVAYLSQKANESGVELDSLSITPQQVARVAALVKEGKLTNKLARQAVDGVLAGEGDVDEVVAARGLEVVRDDGAIEKAVDEALAANPDIVEKYKAGNTKVTGAIVGAVMKATRGKADPAQVNKLIAEKLA,not soluble
4,MTAAPYNYSYIFKYIIIGDMGVGKSCLLHQFTEKKFMADCPHTIGVEFGTRIIEVSGQKIKLQIWDTAGQERFRAVTRSYYRGAAGALMVYDITRRSTYNHLSSWLADAKSLTNPNTAIFLIGNKADLEDQRDVPYEEAKAFAEENGLTFLECSAKTGSNVEDAFLETAKQIYQNIQDGSLDLNAADTGVQPKQNLPRAAENNGKKDCNC,not soluble
5,MTADALVRAPAEPTHPIREWTTVFVGTGDEHLVVAEGPKHRDWRKIGNVFREPARTAVLGLIRTCIADRELKIETFEGKVADALGPVAAAHPILTPDKSVVVAVQIWSGDPKKNPPDRPNVGAWEWVLSSEDNPPPPQLQLDPGAIELIGMSTRHQDRSVFGPADLYTRSARLSDTLRHVRQIRDCQVKDRFDGTFTIRAEADVTRELRYAERCVEGPAGRRVRGICWDAGTDEALVHESMLDAWLSTMLASTSGMYIAVGDLSYQYPYWLKWVTEHVPGLGHGVSTGQTFALHEEDWPKIIEWVQQVRKGPVSGTVRARRGGGGWLKAEFRGFLLDPLVSDSIGVAVISPEIETIPDETS,not soluble
6,MTAFLPPNLLALFEARPPVQYLPPCQDLLVDKNAKRAPMTGVAQYIQLFEDPKDTPAKIPVVTKAEAKEEKRRQKDELLAYKVEQGIATWNPAENPRASEDPYRTLFVGRINYETSESKLRREFEAYGKIKKLTMVHDEAGKPRGYAFIEYSDKAEMHTAYKKADGIKVDGKRLVVDYERGRTQKTWLPRRLGGGKGDTRKTREAKSVIEEREIASGFGGGYEDRDRERSGSRDRRQDSYRNGGGNDRDRRESSGGFRDNRGGGGGFGGGGRDRFNDRSGGGGYGGDRDRGGDRGGDRGGSRYSTGGGSGGGYRSGGGSSGGGGGGRYGDRR,not soluble
7,MTAFQSLKPSTLSREDFVKAFADIYEHSPWVAEKAYELGLDASVDQIETLHQRMSDILLSADHASQLALINAHPDLAGKAAVQGQLTEASTNEQAGAGIHQCTAEEFQRFTELNDAYKAKFKFPFIMAVKGSNRHQILAAFETRIHNSVDTEFKCALAEINKIALFRLLTLLEHHHHHH,not soluble
8,MTAPKVFVSHASEDKARFVVDFARRLRENGVDAWLDQWEMKPGDSLVDKIFEEGLREARAVVIVLSATSVRKPWVREELNASVVNRISRGTKLIPVVIDDCDVPEALRSTVLEHHHHHH,not soluble
9,MTAPRKTRTEVITTVLNLERTLAQTVLGINDENLRVLDNQIDCDIHVRGTHVELTGPAHEVSRASKIFEELQAIARRGHVISPETVKNVISMINVETPQTVSEILTGDILARRGKVIRPKTLGQKHYVDAIDTNTIVFGLGPAGSGKTYLAMAKAVQALQSKQVSRIILTRPAVEAGEKLGFLPGTLNEKIDPYLRPLHDALRDMVEPEVIPKLMEAGIVEVAPLAYMRGRTLNDAFVILDEAQNTTPAQMKMFLTRLGFGSKMVVTGDITQVDLPGGQKSGLRLVRHILRGVDDVHFSELTSSDVVRHQLVGHIVDAYEDYEEREARELKRKRQETRP,not soluble
10,MTAQSYHPMIKEFPEFYGPLTCPGQFLALLILEFGLNFAEIQKLKWENFNWNFKYLTIEKAGIKRVLPIREKFAIRVKAINNADELFAKSRQFLYTELKKFTNYSSKEIREQYILHQVKAGKSIYELATLLGLTTITTLEKYYRLEHHHHHH,soluble
11,MTAQTLYDKLWNSHVVREEEDGTVLLYIDRHLVHEVTSPQAFEGLKMAGRKLWRIDSVVSTADHNTPTGDWDKGIQDPISKLQVDTLDKNIKEFGALAYFPFMDKGQGIVHVMGPEQGATLPGMTVVCGDSHTSTHGAFGALAHGIGTSEVEHTMATQCITAKKSKSMLISVDGKLKAGVTAKDVALYIIGQIGTAGGTGYAIEFGGEAIRSLSMESRMTLCNMAIEAGARSGMVAVDQTTIDYVKDKPFAPEGEAWDKAVEYWRTLVSDEGAVFDKEYRFNAEDIEPQVTWGTSPEMVLDISSKVPNPAEETDPVKRSGMERALEYMGLEAGTPLNEIPVDIVFIGSCTNSRIEDLREAAAIAKDRKKAANVQRVLIVPGSGLVKEQAEKEGLDKIFIEAGFEWREPGCSMCLAMNADRLTPGQRCASTSNRNFEGRQGNGGRTHLVSPAMAAAAAVTGRFTDIRMMA,not soluble
12,MTAVRDPFFPADQSIRASHNPIEVRELGMMDYQRAWDLQAELNKQRQHDEINDVILVLEHPSIYTAGKRTQPSDRPQNGLPVIDVDRGGRITWHGPGQLVMYPIIKLAEPIDVVDYVRRVEEALIHVIRTHGIPNAGRIDGRSGVWVPGKTPEEHRKVAALGIRIAGGVTMHGLALNCDNTVEFYDYIVPCGISDAGVTTMSQEVGNDVTTQSMTAPLLAALDDAFAGRLVVADHSFASAPDPTKIPRRP,not soluble
13,MTAVVSNREEDSMNNEPSLSGRAIIGLIYPPPDIRTIVDKTARFAAKNGVDFENKIREKEAKNPKFNFLSITDPYHAYYKKMVYDFSEGRVEAPKVPQAVKEHVKKAEFVPSAPPPAYEFSADPSTINAYDLDLIRLVALFVARNGRQFLTQLMTREARNYQFDFLKPAHCNFTYFTKLVDQYQKVLVPSTNVVAQLQDDATNKKRLIEDINYRVSWEKHQKGLKDREEAEAEKERQAYASIDWHDFVVVQTVDFQPGDTSQLPPLCTPKDVGARILLEARNEMQKAAAEMQEMDMEESDSDDEDAVQAPEAPAFTAPLPPTKQKDVIVRDYDPKRNVTQKPKAVENWIISPLTGERIPSDKLAEHVRYNTVDSQYKEDRDRHIGERSTEEPVLALGADISRNLGNFAERRTDIFGVGGEQTMIGKKLGEEDNSQQGQNKLIWDGTEETRDMITRAVQNKVTLDQQINEIHRQHGFVADPSKEKIGAQQVPRHQSTQGNVTITQGITNIPGQMPSGWPPVPPMGMPGMPNQALPPIRQMDFGGGPPAKRPRTEDDLIPEADWLKKVNGAISLNVHLPQAPEHGMDGSIVQFTIQVTAPMSELKQQIQDRYGMPVGKQKLMSDGLFVKDNMSSAFYNLADRTAIYLQVKERGGKKK,not soluble
14,MTCFKIRLSKQPLKGRTMNKPFITQAQLALYKYQPSSKYYGKTMAYTFASELLDYSKVNKFIIHEEIQCFLNRRISNNIWKIYFSDESVAYIKILELQDDYSRGIEIKTFDFNPNVGDVFG,not soluble
15,MTDHALLLVNLGSPASTQVADVRSYLNQFLMDPYVIDIPWPLRRLLVSLILIKRPEQSAHAYASIWWDEGSPLVVLSKRLQQAMKKEWSHGPVELAMRYGEPSIETVLTRLSEQGFKKVTLAPLYPQFADSTVTTVIEEAKRVVRAKSLKMQFSVLQPFYDQPEYVSALVESVRPHLEQPYDHLLLSFHGLPERHLHKRDPTGKHCLKDDCCMTAPAQVVATCYRAQCLQSAAAFAKRMGIPDGKWSVSFQSRLGRAKWIEPYTEARLDELAAQGVKKLLVMCPAFVADCIETLEEIGDRGAEQFKEAGGEELILVPCLNDDPNWAKELNRLCERAPLML,not soluble
16,MTDKLPLALFLMGPTASGKTELAIRLRQKFPVEIISVDSALIYKGMDIGTAKPDERELSLAPHRLIDILDPSESYSAADFRRDALQAMDDIVAEGKIPLLVGGTMLYYKALLEGLSPLPAANPEIRQQIEQEALTKGWSVLHDELKEIDPVSAARIHPNDPQRLSRALEVYRISGKTLTELTQTKGESLPYRVKQFAIAPKDRAELHRRIELRFDKMMEAGFEEEMKALYARKDLHPDLPSIRCVGYRQMWEYLDGECTRDEAVFRGVCATRQLAKRQITWLRSWDDLTWLDSDNIEQALETMSEAIASDLEHHHHHH,soluble
17,MTDKWLDTINWSADGLIPAIAQDKNNGKILMVAWMNREALKRTVESGEAVYWSRSRKKLWHKGEESGHTQKISAIHLDCDEDILLLSVEQKGGIACHTGRQSCFFRQLKNGEWVVTEPVIKDPSQIYTK,not soluble
18,MTDLEVSVDDLVKLLSPTMSLIVRRKTMEVVTQLGTPLDGSAGKYFQAQDFALGKAICQLCEATSSDRTETLAALTNFTSGSIEAADFVLDKSKCVEIAYTAVVTNALYSSVASRLLVNVSRHFPDRVDHKLKARNANYIGQLLNEIKKSVETGDEDRAKFVGFTVVNLSVLPPIRQNIVQGGENESSPPSTTMKLLPIVCELLTTAETTEIRECAADVLRNLAFDDSLHGSLLDTSDEYLCSILAPLMDVNDNLDEEEIAKLPVRLQYYEKERDSSDIVRQKLIEALFQLCATKHGREVLRAKGVYPAMRELDKGTETAEDKHKKTLLSSQQEHTLHALIGILIRYESEMDVDPELSSIRELGTSEVTEITKTS,not soluble
19,MTDLIHRPRRLRKSAALRAMFEETTLSLNDLVLPIFVEEELDDYKAIDAMPGVMRIPEKQLAREIERIANAGIRSVMTFGISHHTDDTGSDTWKEDGLVARMSRICKQTVPEMIVMSDTCFCEYTSHGHCGVLCEHGVDNDATLANLGKQAVIAAAAGADFIAPSAAMDGQVQAIRQALDAAGFTDTAIMSYSTKFASSFYGPFREAAGTALKGDRKTYQMNPMNRREAIRESLLDEAQGADCLMVKPAGAYLDVLREIRERTELPLGAYQVSGEYAMIKFAAMAGAIDEEKVVLESLGSIKRAGADLIFSYFALDLAEKNILR,not soluble
20,MTDNITDEAIIDKAQELHDKAYDKAVYERDEANGVHANQNNPEVLIFNDGPTDDEIREKLSWVVDRFRETLKPFPRDFDPLIDKIKAIEAAFGQEEDSFGDPDLGMIETSANYMAQWEGALSTNFNEKFLGPMPIIAANHGKLASYLRDHAEKMKSIYESGRQDALNIAEKGVEAIDAINDSNGKDLMIALAVLIAAGTLAGPALGVASAPLAVQLANAAVIAGSVLGGPFVEKGEEVPLGGDTVEEVMNNVRDALDASAKRIFEEEGYLLDALKKSEEEVFPQTSGNTDDHTALLPQQPKVFTATGEELTAGLVQFGSEDGTDGGGGDRGSYVGDDPPDNFEGSVFVPPEKKTATG,not soluble
21,MTDQERIELQKNNPLHGLKLETLLQELVDFYGWDILDTAMRFNCFHTKPSIASSVKYLNKTEWAREKLENFYLYRFKRMPRASSEEFTLPPRARTFPHGLHPKEPMALTVDSILKSQAKAASAHKERTSRSRYNQR,not soluble

# Reference: the DeepSol protein solubility set
